Assay results as given in paper PMC2599749 (Protein expression and purification, 2008).

Key:
non-reducing SDS-PAGE = target: the molecule itself; assay: non-reducing SDS-PAGE
[1] = target: the molecule itself; assay: HPLC/ESI mass spectrometry

B1: bZIP domain of Activating Transcription Factor 5 (ATF5), untagged (domain or fragment, UniProt Q9Y2D1 208-271, looked up)
chain: GDRKQKKRDQNKSAALRYRQRKRAEGEALEGECQGLEARNRELKERAESVEREIQYVKDLLIEV
non-reducing SDS-PAGE
  monomer:dimer ratio (densitometry of the SDS-PAGE gel): 1.7 dimer per 1.0 monomer
[1]
  stoichiometry N: 2
